Reference: publication PMC11931385, “Structural and functional analysis of cancer-associated missense variants in the retinoblastoma protein pocket domain” (The Journal of Biological Chemistry, 2025)
No end group written: not given here. TMR = tetramethyl rhodamine dye

T1: Rb^P Q504E (human, UniProt P06400 380-788, Q504E)
T1 construct: also called variant 19
T1 sequence (looked up): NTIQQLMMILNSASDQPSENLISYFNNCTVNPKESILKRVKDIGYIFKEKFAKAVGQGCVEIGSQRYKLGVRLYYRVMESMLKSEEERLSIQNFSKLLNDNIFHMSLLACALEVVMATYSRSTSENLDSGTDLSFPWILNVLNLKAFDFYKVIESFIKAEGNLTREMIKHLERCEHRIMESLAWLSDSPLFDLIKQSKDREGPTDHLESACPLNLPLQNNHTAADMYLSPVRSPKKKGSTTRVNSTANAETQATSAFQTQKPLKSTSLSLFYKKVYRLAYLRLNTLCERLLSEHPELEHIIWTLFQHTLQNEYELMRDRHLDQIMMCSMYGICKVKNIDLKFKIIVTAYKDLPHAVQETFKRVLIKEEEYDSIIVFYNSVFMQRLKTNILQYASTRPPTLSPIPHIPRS

T2: Rb^P Y606C (human, UniProt P06400 380-788, Y606C)
T2 construct: also called variant 37
T2 sequence (looked up): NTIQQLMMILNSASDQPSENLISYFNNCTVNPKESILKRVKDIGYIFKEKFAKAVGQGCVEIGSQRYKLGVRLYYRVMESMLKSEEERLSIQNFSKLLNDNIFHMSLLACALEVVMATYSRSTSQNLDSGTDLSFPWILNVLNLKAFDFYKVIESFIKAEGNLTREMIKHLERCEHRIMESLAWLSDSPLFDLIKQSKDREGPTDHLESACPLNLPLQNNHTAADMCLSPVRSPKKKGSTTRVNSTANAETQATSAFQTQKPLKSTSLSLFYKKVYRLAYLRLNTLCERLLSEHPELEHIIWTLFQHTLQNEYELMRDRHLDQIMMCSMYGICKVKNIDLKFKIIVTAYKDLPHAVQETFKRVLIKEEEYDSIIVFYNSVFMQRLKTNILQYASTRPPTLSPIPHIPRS

T3: Rb^P S648T (human, UniProt P06400 380-788, S648T)
T3 construct: also called variant 46
T3 sequence (looked up): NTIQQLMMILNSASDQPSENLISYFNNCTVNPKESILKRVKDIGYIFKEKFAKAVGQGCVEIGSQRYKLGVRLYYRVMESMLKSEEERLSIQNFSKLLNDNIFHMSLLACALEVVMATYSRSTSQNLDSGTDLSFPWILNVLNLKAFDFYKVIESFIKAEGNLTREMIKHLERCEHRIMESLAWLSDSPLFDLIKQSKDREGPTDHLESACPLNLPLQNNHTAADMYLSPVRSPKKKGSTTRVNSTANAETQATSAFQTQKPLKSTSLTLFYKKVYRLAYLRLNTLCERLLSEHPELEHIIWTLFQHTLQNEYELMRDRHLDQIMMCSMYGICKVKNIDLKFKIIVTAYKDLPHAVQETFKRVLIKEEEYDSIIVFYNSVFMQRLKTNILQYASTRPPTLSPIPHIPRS

T4: Rb^P V754G (human, UniProt P06400 380-788, V754G)
T4 construct: also called variant 73
T4 sequence (looked up): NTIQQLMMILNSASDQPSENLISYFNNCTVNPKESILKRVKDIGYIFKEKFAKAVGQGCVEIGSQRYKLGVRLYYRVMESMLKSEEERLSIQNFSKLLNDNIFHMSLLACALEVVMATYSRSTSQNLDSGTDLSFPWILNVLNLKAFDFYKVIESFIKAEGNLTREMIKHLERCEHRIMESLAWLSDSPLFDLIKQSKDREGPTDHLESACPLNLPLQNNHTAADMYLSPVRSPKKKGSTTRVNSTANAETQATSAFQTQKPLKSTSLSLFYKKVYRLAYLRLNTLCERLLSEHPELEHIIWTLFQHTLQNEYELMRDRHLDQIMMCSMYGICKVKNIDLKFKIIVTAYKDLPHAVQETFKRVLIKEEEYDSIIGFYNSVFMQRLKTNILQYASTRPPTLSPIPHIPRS

T5: Rb^P S751C (human, UniProt P06400 380-788, S751C)
T5 construct: also called variant 71
T5 sequence (looked up): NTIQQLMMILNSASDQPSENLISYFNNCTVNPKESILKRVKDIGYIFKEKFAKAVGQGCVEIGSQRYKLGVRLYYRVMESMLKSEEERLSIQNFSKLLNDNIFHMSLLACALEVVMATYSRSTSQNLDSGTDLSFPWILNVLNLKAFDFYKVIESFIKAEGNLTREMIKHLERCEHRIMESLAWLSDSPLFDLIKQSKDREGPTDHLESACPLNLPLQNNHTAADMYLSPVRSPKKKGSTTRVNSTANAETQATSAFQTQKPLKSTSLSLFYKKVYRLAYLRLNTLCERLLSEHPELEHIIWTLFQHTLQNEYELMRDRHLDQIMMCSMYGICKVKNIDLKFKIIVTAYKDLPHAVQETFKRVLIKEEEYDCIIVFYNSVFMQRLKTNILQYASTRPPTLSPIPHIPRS


What was measured:
Assay in all cases: fluorescence polarisation; 25 °C; unlabeled Rb^P titrated against 1.5 nM TMR-E2F1^TD or 7.5 nM TMR-E7^LxCxE; 25 mM Tris pH 8.0, 200 mM NaCl, 1 mM DTT, 0.1% Tween-20; 2 min incubation; quadratic fit; apparent Kd for the variants, Kd for WT
Settings in all cases: both partners purified
Rb^P Q504E = target: T1, Rb^P Q504E
Rb^P Y606C = target: T2, Rb^P Y606C
Rb^P S648T = target: T3, Rb^P S648T
Rb^P V754G = target: T4, Rb^P V754G
Rb^P S751C = target: T5, Rb^P S751C

Row | Binder | Kd (Rb^P Q504E) [nM] | Kd (Rb^P Y606C) [nM] | Kd (Rb^P S648T) [nM] | Kd (Rb^P V754G) [nM] | Kd (Rb^P S751C) [nM]
1 | {TMR}-GEGIRDLFDCDFGDLTPLD (also called E2F^TD; source: synthetic peptide, bought: GenScript) [TMR-E2F1^TD, peptide of the E2F1 transactivation domain] | 18 | 15 | 33 | 20 | 66
2 | DLYCYEQLN (also: TMR label, position not given here, source: synthetic peptide, bought: GenScript) [TMR-E7^LxCxE, LxCxE peptide of the E7 oncoprotein from HPV] | 5 | 7 | 6 | 7 | 44
